Measured values published in patent US20150344888A1 (Genentech, published 2015).
Several values for one entry are separate records, joined by “and”; a condition that tells them apart may be missing. Equal values may be shown once. Where no end group is shown, it is not given here.

Legend:
[1] = target: T1, biotinylated USP30_cd (USP30 catalytic domain with C77A mutation) (Homo sapiens (Human), UniProt Q70CQ3 57-517, limits assumed, biotinylated (site not stated)); assay: spot phage ELISA on biotinylated USP30_cd
T1 sequence: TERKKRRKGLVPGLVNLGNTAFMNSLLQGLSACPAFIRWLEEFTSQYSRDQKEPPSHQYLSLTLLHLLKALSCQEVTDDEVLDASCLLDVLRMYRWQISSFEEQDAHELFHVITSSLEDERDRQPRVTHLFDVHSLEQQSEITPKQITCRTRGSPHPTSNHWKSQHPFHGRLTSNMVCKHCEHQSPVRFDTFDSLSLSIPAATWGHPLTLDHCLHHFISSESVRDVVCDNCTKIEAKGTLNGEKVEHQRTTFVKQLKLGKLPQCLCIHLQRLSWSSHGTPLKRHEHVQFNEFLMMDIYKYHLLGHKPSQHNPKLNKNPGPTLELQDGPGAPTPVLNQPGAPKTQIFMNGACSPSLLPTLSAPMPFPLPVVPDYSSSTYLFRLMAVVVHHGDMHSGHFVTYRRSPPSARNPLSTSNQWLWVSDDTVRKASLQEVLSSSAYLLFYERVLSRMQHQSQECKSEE
From the text: The selection identified peptide USP30_{—}3 and USP30_{—}8, which had moderate spot ELISA signals (signal/noise ratios of ˜5).

[2] = target: T2, UCHL3 (UniProt P15374 1-230); assay: cell-based or functional assay
T2 sequence (looked up): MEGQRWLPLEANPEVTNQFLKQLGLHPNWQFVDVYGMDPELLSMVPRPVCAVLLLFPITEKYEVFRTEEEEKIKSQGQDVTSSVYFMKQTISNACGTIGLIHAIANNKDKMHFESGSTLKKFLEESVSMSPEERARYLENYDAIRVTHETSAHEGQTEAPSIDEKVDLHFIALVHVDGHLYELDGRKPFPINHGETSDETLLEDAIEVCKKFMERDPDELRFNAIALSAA

[3] = target: T3, USP30 (active enzyme in the ubiquitin-AMC assay) (Homo sapiens (Human), UniProt Q70CQ3 57-517, limits assumed); assay: cell-based or functional assay
T3 sequence: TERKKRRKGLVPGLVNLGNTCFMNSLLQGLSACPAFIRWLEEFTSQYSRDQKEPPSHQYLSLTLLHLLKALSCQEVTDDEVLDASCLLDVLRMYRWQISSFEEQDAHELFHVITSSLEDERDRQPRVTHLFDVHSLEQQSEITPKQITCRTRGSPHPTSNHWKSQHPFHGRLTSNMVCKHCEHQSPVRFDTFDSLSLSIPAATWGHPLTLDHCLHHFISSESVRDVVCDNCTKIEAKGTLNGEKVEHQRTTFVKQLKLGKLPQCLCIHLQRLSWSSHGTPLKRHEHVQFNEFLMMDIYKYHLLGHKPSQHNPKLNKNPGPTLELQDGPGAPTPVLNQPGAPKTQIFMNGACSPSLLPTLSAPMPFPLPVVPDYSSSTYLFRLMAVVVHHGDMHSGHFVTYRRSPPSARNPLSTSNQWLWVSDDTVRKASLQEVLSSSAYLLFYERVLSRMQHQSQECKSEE

[4] = target: T4, USP2 (UniProt O75604 259-605, limits assumed); assay: cell-based or functional assay
T4 sequence (looked up): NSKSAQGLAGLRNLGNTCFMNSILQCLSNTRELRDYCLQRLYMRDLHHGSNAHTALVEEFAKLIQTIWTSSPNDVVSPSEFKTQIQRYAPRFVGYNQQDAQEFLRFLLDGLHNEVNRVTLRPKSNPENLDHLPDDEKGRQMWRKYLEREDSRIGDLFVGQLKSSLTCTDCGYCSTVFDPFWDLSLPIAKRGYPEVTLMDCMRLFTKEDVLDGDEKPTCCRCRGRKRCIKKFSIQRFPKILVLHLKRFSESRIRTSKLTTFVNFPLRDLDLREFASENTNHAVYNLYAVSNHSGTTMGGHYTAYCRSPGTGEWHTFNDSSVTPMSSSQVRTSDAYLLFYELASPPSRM

[5] = target: T5, USP5 (UniProt P45974 1-858, limits assumed); assay: cell-based or functional assay
T5 sequence (looked up): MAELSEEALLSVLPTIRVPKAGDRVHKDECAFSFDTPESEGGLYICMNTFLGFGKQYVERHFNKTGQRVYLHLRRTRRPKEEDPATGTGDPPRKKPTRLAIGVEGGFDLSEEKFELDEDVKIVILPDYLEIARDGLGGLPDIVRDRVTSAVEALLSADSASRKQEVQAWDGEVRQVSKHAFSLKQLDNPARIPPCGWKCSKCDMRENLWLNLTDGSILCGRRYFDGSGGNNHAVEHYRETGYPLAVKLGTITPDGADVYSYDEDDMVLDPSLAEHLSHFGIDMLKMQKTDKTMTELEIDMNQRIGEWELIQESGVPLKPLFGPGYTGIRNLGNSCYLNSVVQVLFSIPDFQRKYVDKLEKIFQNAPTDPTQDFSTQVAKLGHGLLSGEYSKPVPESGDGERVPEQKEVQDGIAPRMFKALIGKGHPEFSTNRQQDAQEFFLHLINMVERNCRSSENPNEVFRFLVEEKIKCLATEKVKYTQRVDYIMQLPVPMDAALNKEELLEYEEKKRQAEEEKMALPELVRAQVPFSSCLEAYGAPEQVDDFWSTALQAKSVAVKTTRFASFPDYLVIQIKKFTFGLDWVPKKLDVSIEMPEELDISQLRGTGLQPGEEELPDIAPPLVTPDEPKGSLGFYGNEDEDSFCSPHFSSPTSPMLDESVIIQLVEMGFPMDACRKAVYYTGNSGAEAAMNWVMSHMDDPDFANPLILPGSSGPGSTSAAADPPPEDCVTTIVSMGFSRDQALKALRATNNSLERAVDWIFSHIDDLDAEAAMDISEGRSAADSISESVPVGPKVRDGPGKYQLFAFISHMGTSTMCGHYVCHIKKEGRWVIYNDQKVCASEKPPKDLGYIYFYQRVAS

Binder	signal/noise ratio (spot ELISA) [1]	IC50, inhibition of ubiquitin-AMC cleavage (initial rate, fluorescence) [2]	IC50, inhibition of ubiquitin-AMC cleavage (initial rate, fluorescence) [3]	IC50, inhibition of ubiquitin-AMC cleavage (initial rate, fluorescence) [4]	fold higher IC50 than for USP30 [4]	IC50, inhibition of ubiquitin-AMC cleavage (initial rate, fluorescence) [5]	fold higher IC50 than for USP30 [5]
VSRCYIFWNEMFCDVE (not fully specified (bridges); cysteine pairing not given here, also called pep8) [peptide USP30-8]	~5	–	–	–	–	–	–
PLYCFYDLTYGYLCFY (also called pep3; parent USP30-3) [peptide USP30-3]	~5	> 200 µM	8 µM	~100 µM and > 200 µM	> 10 fold	49.4 µM	> 6 fold
